Experimental findings from PMC12262736 are described below.

For test [1], the target named is LiaS (Enterococcus faecalis). The test is described as follows: MST.
The target of test [2] is MadS (Enterococcus faecalis). Description: MST.

As for MadR (natural protein), the Kd in test [1] stood at 5.02 µM; in test [2], 8.08 µM.

Take LiaR (natural protein): the Kd in test [1] was found to be 2.42 µM; in test [2], 25.7 µM.
